Target: the molecule itself
Experiment: SEC; purified LtrK cytoplasmic domain; oligomeric state by size exclusion chromatography; data not shown

B1: LtrK (low temperature responsive sensor kinase, Mbur_0694), soluble cytoplasmic domain, residues 323-592 (domain or fragment, Methanococcoides burtonii, UniProt Q12Y17 323-592, looked up)
chain: NKTLEDEVKSKTSELERSNDYLQNANKKLKELDRLKNDFVSMVSHELKTPLTAMKTSSEFLRESECSREIKEEMLDLIIRNIDRQARMVDDLLDISRIESGKMKFTPEDVNIKEIIEISLHNVTKHAKDKSIKIMVNCPDDVPAISTDKDKLIRIFVNLLTNAIKFTPEEGEVTVIVEDHEDYLQTSIKDNGIGILEEKRDKIFDKFYQVDSTATRKAGGTGLGLAIIKGIIDGQGGKIYLESETGKGSTFTFRLPKELKEDDFTEIEGT
notes: LtrK (Mbur_0694) sensor kinase of Methanococcoides burtonii, cytoplasmic domain (HisKA and HATPase domains), residues 323-592; the N-terminal region with the transmembrane domains was deleted; A Tev site lies between GST and LtrK; Both the GST fusion (~59 kDa) and the GST-cleaved protein (~31 kDa) were purified; also called GST-LtrK; SK; source: E. coli BL21 (DE3), solubilised with Triton X-100 …
stoichiometry N: 2

Source: paper PMC4823666, “Characterization of a temperature-responsive two component regulatory system from the Antarctic archaeon, Methanococcoides burtonii” (Scientific Reports, 2016)
